Here are results for four molecules from patent US20180155451A1 (published 2018).

Where two headings read alike, the source gives them in different places.

The Kd is the equilibrium constant for the complex coming apart. For orientation: koff means the rate constant with which the complex falls apart. Low readings indicate slow dissociation, high ones fast dissociation.

The target of experiment [1] is T1, FcγRIIIa extracellular domain with C-terminal His tag (human, UniProt P08637 17-208).
T1 construct: extracellular domain; also called FcgRIIIa; CD16A
Kind of experiment: SPR (Biacore), antibody captured, FcγRIIIa as analyte, 1:1 Langmuir kinetic fit. From the text:
(§1) Then, GpH7-TA54 (SEQ ID NO: 46) resulting from the introduction of Y296W into GpH7-TA22 was constructed, and expressed and prepared in combination with GpH7-B78 according to the method described in Reference Example 1. Furthermore, GpH7-TA58 (SEQ ID NO: 45) resulting from the introduction of Y296W into GpH7-B78 was constructed, and expressed and prepared in combination with GpH7-TA22 according to the method described in Reference Example 1. To assess the effect of combination with Y296W, the prepared antibodies were compared for the FcγRIIIa-binding activity according to the method described in Reference Example 2 (Table 17).
(§2) Analysis of interaction between objective antibody and the FcγR was carried out using Biacore T100 (GE Healthcare). HBS-EP+ (GE Healthcare) was used as the running buffer, and the measurement temperature was set to 25° C. Chips produced by immobilizing the antigen peptide by the amine coupling method to a Series S Sencor Chip CM5 (GE Healthcare), or alternatively, chips produced by allowing preliminarily biotinylated antigen peptides to interact with and immobilize onto a Series S Sensor Chip SA (certified) (GE Healthcare) were used. Antibodies of interest were captured onto an antigen peptide-immobilized chip, and allowed to interact to each FcγR diluted with running buffer. To regenerate and repeatedly use the chip, the antibodies captured on the chip were washed off by reacting 10 mM glycine-HCl, pH 1.5.
(§3) The FcγR-binding activity of each antibody was assessed primarily using as an indicator the FcγR-binding activity and dissociation constant for FcγR.
A general note: SPR reads the build-up and loss of mass on a sensor chip optically.

The target in experiment [2] is T1, FcγRIIIa extracellular domain with …. Kind of experiment: SPR (Biacore), ratio of KD values for FcγRIIIa.
Excerpt: as §1, §2

Experiment [3] shares this target. As to the kind of experiment: SPR (Biacore), ratio of KD values for FcγRIIIa.
Excerpt: (§4) First, it was considered which H chain should be introduced with Y296W. GpH7-TA52 (SEQ ID NO: 44) resulting from the introduction of the mutation Y296W into GpH7-TA7 was constructed, and expressed and prepared in combination with GpH7-B78 according to the method described in Reference Example 1. Furthermore, GpH7-TA58 (SEQ ID NO: 45) resulting from the introduction of Y296W into GpH7-B78 was constructed, and expressed and prepared in combination with GpH7-TA22 according to the method described in Reference Example 1. To assess the effects of combinations with Y296W, the prepared antibodies were compared for the FcγRIIIa-binding activity according to the method described in Reference Example 2 (Table 16).
as §2
This is another data set of the same source.

Experiment [4] has the same target. Kind of experiment: SPR (Biacore), antibody captured, FcγRIIIa as analyte, 1:1 Langmuir kinetic fit.
Excerpt: as §4, §2, §3
The source holds these as a separate data set.

In another experiment the target is T2, FcγRIa (human, UniProt P12314 16-292).
T2 construct: extracellular domain; also called FcgRIa; FcgRI; not shown: His tag attached to the C terminus
As to the kind of experiment: SPR (Biacore4000), kinetic analysis. As to the method: The variants described above were assessed for their binding to FcγR according to the method described in Reference Example 8.
Analysis of interaction between obj ective antibody and the FcγR was carried out using Biacore T100 (GE Healthcare), Biacore T200, Biacore A100, and Biacore 4000. HBS-EP+ (GE Healthcare) was used as the running buffer, and the measurement temperature was set to 25° C. Chips produced by immobilizing the antigen peptide by the amine coupling method to a Series S sensor Chip CM5 (GE Healthcare), chips produced by allowing preliminarily biotinylated antigen peptides to interact with and immobilize onto a Series S Sensor Chip SA (certified) (GE Healthcare), chips produced by immobilizing Protein L (ACTIGEN, BioVision) to Series S Sencor Chip CM5 (GE Healthcare), or chips produced by immobilizing Protein A/G (Thermo Scientific) to Series S Sencor Chip CM5 (GE Healthcare) were used. Antibodies of interest were captured onto these chips, and allowed to interact to each FcγR diluted with running buffer. To regenerate and repeatedly use the chip, the antibodies captured onto the chip were washed off by reacting 10 mM glycine-HCl, pH 1.5.

T1 sequence (P08637 17-208): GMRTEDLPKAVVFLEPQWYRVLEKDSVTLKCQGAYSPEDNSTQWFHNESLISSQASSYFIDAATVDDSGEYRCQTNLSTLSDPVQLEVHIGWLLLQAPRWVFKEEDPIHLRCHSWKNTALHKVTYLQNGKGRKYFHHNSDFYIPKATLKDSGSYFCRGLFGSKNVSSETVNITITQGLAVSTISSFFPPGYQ
T2 sequence (P12314 16-292): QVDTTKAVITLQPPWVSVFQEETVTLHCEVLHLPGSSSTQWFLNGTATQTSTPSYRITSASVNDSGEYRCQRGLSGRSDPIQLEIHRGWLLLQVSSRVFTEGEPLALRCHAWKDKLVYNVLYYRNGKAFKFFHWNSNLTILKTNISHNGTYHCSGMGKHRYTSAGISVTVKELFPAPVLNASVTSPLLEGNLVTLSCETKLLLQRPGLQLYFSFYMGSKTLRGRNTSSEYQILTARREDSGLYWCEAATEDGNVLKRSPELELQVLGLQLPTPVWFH

B1: GpH7-TA22/GpH7-TA58/GpL16-k0 (antibody, human IgG1, kappa)
heavy 1: QVQLVQSGAEVKKPGASVTVSCKASGYTFTDYEMHWIRQPPGEGLEWIGAIDPKTGDTAYSESFQDRVTLTADKSTSTAYMELSSLTSEDTAVYYCTRFYSYTYWGQGTLVTVSSASTKGPSVFPLAPSSKSTSGGTAALGCLVKDYFPEPVTVSWNSGALTSGVHTFPAVLQSSGLYSLSSVVTVPSSSLGTQTYICNVNHKPSNTKVDKKVEPKSCDKTHTCPPCPAPEYLWGPDVFLFPPKPKDTLMISRTPEVTCVVVDVSHEDPEVKFNWYVDGVEVHNAKTKPREEQYNATYRVVSVLTVLHQDWLNGKEYKCKVSNKALPAPIEKTISKAKGQPREPQVYTLPPSRKELTKNQVSLTCLVKGFYPSDIAVEWESNGQPENNYKTTPPVLDSDGSFFLYSKLTVDKSRWQQGNVFSCSVMHEALHNRYTQKSLSLSP
heavy 2: QVQLVQSGAEVKKPGASVTVSCKASGYTFTDYEMHWIRQPPGEGLEWIGAIDPKTGDTAYSESFQDRVTLTADKSTSTAYMELSSLTSEDTAVYYCTRFYSYTYWGQGTLVTVSSASTKGPSVFPLAPSSKSTSGGTAALGCLVKDYFPEPVTVSWNSGALTSGVHTFPAVLQSSGLYSLSSVVTVPSSSLGTQTYICNVNHKPSNTKVDKKVEPKSCDKTHTCPPCPAPELLGGPDVFLFPPKPKDTLMISRTPEVTCVVVDVSHEDPEVKFNWYVDGVEVHNAKTKPREEQWNSTYRVVSVLTVLHQDWLNGKEYKCKVSNKALPLPEEKTISKAKGQPREPQVYTLPPSRDELTKNQVSLTCLVKGFYPSDIAVEWESNGQPENNYKTTPPVLDSDGSFFLYSKLTVDKSRWQQGNVFSCSVMHEALHNHYTQESLSLSP
light: DIVMTQSPLSLPVTPGEPASISCQASESLVHSNRNTYLHWYLQKPGQSPQLLIYKVSNRFSGVPDRFSGSGSGTDFTLKISRVEAEDVGVYYCSQNTHVPPTFGQGTKVEIERTVAAPSVFIFPPSDEQLKSGTASVVCLLNNFYPREAKVQWKVDNALQSGNSQESVTEQDSKDSTYSLSSTLTLSKADYEKHKVYACEVTHQGLSSPVTKSFNRGEC
notes: Heterodimerized anti-glypican-3 IgG1 variant
B1: the Kd in experiment [1] is 1.3 nM. Also, the “KD ratio (KD of GpH7-TA22/GpH7-B78/GpL16-k0 divided by KD of the antibody)” value in experiment [2] was found to be 10 fold.

B2: GpH7-TA52/GpH7-B78/GpL16-k0 (antibody, human IgG1, kappa)
heavy 1: QVQLVQSGAEVKKPGASVTVSCKASGYTFTDYEMHWIRQPPGEGLEWIGAIDPKTGDTAYSESFQDRVTLTADKSTSTAYMELSSLTSEDTAVYYCTRFYSYTYWGQGTLVTVSSASTKGPSVFPLAPSSKSTSGGTAALGCLVKDYFPEPVTVSWNSGALTSGVHTFPAVLQSSGLYSLSSVVTVPSSSLGTQTYICNVNHKPSNTKVDKKVEPKSCDKTHTCPPCPAPEYLWGPSVFLFPPKPKDTLMISRTPEVTCVVVDVSHEDPEVKFNWYVDGVEVHNAKTKPREEQWNATYRVVSVLTVLHQDWLNGKEYKCKVSNKALPAPIEKTISKAKGQPREPQVYTLPPSRKELTKNQVSLTCLVKGFYPSDIAVEWESNGQPENNYKTTPPVLDSDGSFFLYSKLTVDKSRWQQGNVFSCSVMHEALHNRYTQKSLSLSP
heavy 2: QVQLVQSGAEVKKPGASVTVSCKASGYTFTDYEMHWIRQPPGEGLEWIGAIDPKTGDTAYSESFQDRVTLTADKSTSTAYMELSSLTSEDTAVYYCTRFYSYTYWGQGTLVTVSSASTKGPSVFPLAPSSKSTSGGTAALGCLVKDYFPEPVTVSWNSGALTSGVHTFPAVLQSSGLYSLSSVVTVPSSSLGTQTYICNVNHKPSNTKVDKKVEPKSCDKTHTCPPCPAPELLGGPDVFLFPPKPKDTLMISRTPEVTCVVVDVSHEDPEVKFNWYVDGVEVHNAKTKPREEQYNSTYRVVSVLTVLHQDWLNGKEYKCKVSNKALPLPEEKTISKAKGQPREPQVYTLPPSRDELTKNQVSLTCLVKGFYPSDIAVEWESNGQPENNYKTTPPVLDSDGSFFLYSKLTVDKSRWQQGNVFSCSVMHEALHNHYTQESLSLSP
light: DIVMTQSPLSLPVTPGEPASISCQASESLVHSNRNTYLHWYLQKPGQSPQLLIYKVSNRFSGVPDRFSGSGSGTDFTLKISRVEAEDVGVYYCSQNTHVPPTFGQGTKVEIERTVAAPSVFIFPPSDEQLKSGTASVVCLLNNFYPREAKVQWKVDNALQSGNSQESVTEQDSKDSTYSLSSTLTLSKADYEKHKVYACEVTHQGLSSPVTKSFNRGEC
notes: as for B1
B2: in experiment [3], the “KD ratio (KD of GpH7-TA7/GpH7-B78/GpL16-k0 divided by KD of the antibody)” value is 1.8 fold. Further, the dissociation constant (Kd) in experiment [4] was determined as 2.3 nM.

B3: GpH7-TA54/GpH7-B78/GpL16-k0 (antibody, human IgG1, kappa)
heavy 1: QVQLVQSGAEVKKPGASVTVSCKASGYTFTDYEMHWIRQPPGEGLEWIGAIDPKTGDTAYSESFQDRVTLTADKSTSTAYMELSSLTSEDTAVYYCTRFYSYTYWGQGTLVTVSSASTKGPSVFPLAPSSKSTSGGTAALGCLVKDYFPEPVTVSWNSGALTSGVHTFPAVLQSSGLYSLSSVVTVPSSSLGTQTYICNVNHKPSNTKVDKKVEPKSCDKTHTCPPCPAPEYLWGPDVFLFPPKPKDTLMISRTPEVTCVVVDVSHEDPEVKFNWYVDGVEVHNAKTKPREEQWNATYRVVSVLTVLHQDWLNGKEYKCKVSNKALPAPIEKTISKAKGQPREPQVYTLPPSRKELTKNQVSLTCLVKGFYPSDIAVEWESNGQPENNYKTTPPVLDSDGSFFLYSKLTVDKSRWQQGNVFSCSVMHEALHNRYTQKSLSLSP
heavy 2: QVQLVQSGAEVKKPGASVTVSCKASGYTFTDYEMHWIRQPPGEGLEWIGAIDPKTGDTAYSESFQDRVTLTADKSTSTAYMELSSLTSEDTAVYYCTRFYSYTYWGQGTLVTVSSASTKGPSVFPLAPSSKSTSGGTAALGCLVKDYFPEPVTVSWNSGALTSGVHTFPAVLQSSGLYSLSSVVTVPSSSLGTQTYICNVNHKPSNTKVDKKVEPKSCDKTHTCPPCPAPELLGGPDVFLFPPKPKDTLMISRTPEVTCVVVDVSHEDPEVKFNWYVDGVEVHNAKTKPREEQYNSTYRVVSVLTVLHQDWLNGKEYKCKVSNKALPLPEEKTISKAKGQPREPQVYTLPPSRDELTKNQVSLTCLVKGFYPSDIAVEWESNGQPENNYKTTPPVLDSDGSFFLYSKLTVDKSRWQQGNVFSCSVMHEALHNHYTQESLSLSP
light: DIVMTQSPLSLPVTPGEPASISCQASESLVHSNRNTYLHWYLQKPGQSPQLLIYKVSNRFSGVPDRFSGSGSGTDFTLKISRVEAEDVGVYYCSQNTHVPPTFGQGTKVEIERTVAAPSVFIFPPSDEQLKSGTASVVCLLNNFYPREAKVQWKVDNALQSGNSQESVTEQDSKDSTYSLSSTLTLSKADYEKHKVYACEVTHQGLSSPVTKSFNRGEC
notes: as for B1
B3: the Kd in experiment [1] was 1 nM. For the same molecule, the “KD ratio (KD of GpH7-TA22/GpH7-B78/GpL16-k0 divided by KD of the antibody)” value in experiment [2] was 1.3 fold.

B4: H240-Kn120/H240-Hl073/L73-k0 (antibody, human IgG1, kappa)
heavy 1: QDQLVQSGAEVKKPGASVKVSCKASGFNIKDTYIQWVRQAPGQGLEWMGRIDPLRKQTKYREKFEGRVTITADTSTNTAYMELSSLRSEDTAVYYCVRSGREFDYWGQGTLVTVSSASTKGPSVFPLAPSSKSTSGGTAALGCLVKDYFPEPVTVSWNSGALTSGVHTFPAVLQSSGLYSLSSVVTVPSSSLGTQTYICNVNHKPSNTKVDKKVEPKSCDKTHTCPPCPAPEYYWGPMVFLFPPKPKDTLMISRTPEVTCVVVDVSDEDPEVKFNWYVDGVEVHNAKTKPREEQYNATYRVVSVLTVLHQDWLNGKEYKCKVSNKDLPAPIEKTISKAKGQPREPQVCTLPPSRDELTKNQVSLWCLVKGFYPSDIAVEWESNGQPENNYKTTPPVLDSDGSFFLYSKLTVDKSRWQQGNVFSCSVMHEALHNHYTQKSLSLSP
heavy 2: QDQLVQSGAEVKKPGASVKVSCKASGFNIKDTYIQWVRQAPGQGLEWMGRIDPLRKQTKYREKFEGRVTITADTSTNTAYMELSSLRSEDTAVYYCVRSGREFDYWGQGTLVTVSSASTKGPSVFPLAPSSKSTSGGTAALGCLVKDYFPEPVTVSWNSGALTSGVHTFPAVLQSSGLYSLSSVVTVPSSSLGTQTYICNVNHKPSNTKVDKKVEPKSCDKTHTCPPCPAPELLSGPSVFLFPPKPKDTLMISRTPEVTCVVVDVSHEEPEVKFNWYVDGVEVHNAKTKPREEQYNSTYRVVSVLTVLHQDWLNGKEYKCKVSNDALPKPIEETISKAKGQPREPQVYTLPPSRCELTKNQVSLSCAVKGFYPSDIAVEWESNGQPENNYKTTPPVLDSDGSFFLVSKLTVDKSRWQQGNVFSCSVMHEALHNHYTQKSLSLSP
light: DIQMTQSPSSLSASVGDRVTITCRASQDIHKYIAWYQQKPGQAPRLLIQYTSTLQPGVPSRFSGSGSGTDYTFTISSLQPEDIATYYCLQYEQLRTFGGGTKVEIKRTVAAPSVFIFPPSDEQLKSGTASVVCLLNNFYPREAKVQWKVDNALQSGNSQESVTEQDSKDSTYSLSSTLTLSKADYEKHKVYACEVTHQGLSSPVTKSFNRGEC
notes: G236S in H240-Hl068
B4: the dissociation rate constant (koff) with FcγRIa was under 5e-05 s⁻¹.
